Measurements as given in PMC9482650, “Quantitative fragmentomics allow affinity mapping of interactomes” (Nature Communications, 2022).

Experiments:
Assay in all cases: holdup assay
Design in all cases: key: below the threshold = too weak to quantify, mostly under pKd 3.1 to 4
Settings in all cases: plain residues with an end cap or a label only (N-terminal biotin on a linker: ado-ado)
AHNAK1, Q09666 = molecular target: AHNAK1, Q09666
ARHGEF12, Q9NZN5-2 = molecular target: ARHGEF12, Q9NZN5-2
CARD11, Q9BXL7 = molecular target: T1, CARD11, Q9BXL7
T1 sequence (Q9BXL7 662-765, limits assumed, looked up): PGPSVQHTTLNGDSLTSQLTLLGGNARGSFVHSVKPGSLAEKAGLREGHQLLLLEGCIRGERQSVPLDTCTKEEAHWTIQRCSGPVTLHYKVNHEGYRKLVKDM

DLG2_3, Q15700 = molecular target: DLG2_3, Q15700
HTRA3, P83110 = molecular target: T2, HTRA3, P83110
T2 sequence (P83110 354-453, limits assumed, looked up): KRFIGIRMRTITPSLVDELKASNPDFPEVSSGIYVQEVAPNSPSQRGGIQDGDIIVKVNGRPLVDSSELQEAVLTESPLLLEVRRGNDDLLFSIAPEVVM

HTRA4, P83105 = molecular target: T3, HTRA4, P83105
T3 sequence (P83105 378-476, limits assumed, looked up): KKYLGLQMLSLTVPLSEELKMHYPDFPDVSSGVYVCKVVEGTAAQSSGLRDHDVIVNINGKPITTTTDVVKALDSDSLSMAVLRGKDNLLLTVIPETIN

IL16_1, Q14005 = molecular target: IL16_1, Q14005
Inadl_3, Q8NI35 = molecular target: Inadl_3, Q8NI35
Inadl_4, Q8NI35 = molecular target: Inadl_4, Q8NI35
Inadl_9, Q8NI35 = molecular target: Inadl_9, Q8NI35
LNX2_3, Q8N448 = molecular target: T4, LNX2_3, Q8N448
T4 sequence (Q8N448 463-564, limits assumed, looked up): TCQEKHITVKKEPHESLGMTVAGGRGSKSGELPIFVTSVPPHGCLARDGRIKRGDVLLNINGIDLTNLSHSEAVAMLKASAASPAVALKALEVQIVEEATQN

MAGI2_5, Q86UL8 = molecular target: MAGI2_5, Q86UL8
MAST1, Q9Y2H9 = molecular target: MAST1, Q9Y2H9
MPP7, Q5T2T1 = molecular target: T5, MPP7, Q5T2T1
T5 sequence (Q5T2T1 134-230, limits assumed, looked up): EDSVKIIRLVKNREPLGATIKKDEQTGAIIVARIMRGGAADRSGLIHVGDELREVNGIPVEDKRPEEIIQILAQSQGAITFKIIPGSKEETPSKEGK

NHERF2_2, Q15599 = molecular target: NHERF2_2, Q15599
NHERF4_1, Q86UT5-2 = molecular target: NHERF4_1, Q86UT5-2
NOS1, P29475 = molecular target: NOS1, P29475
PARD3B_1, Q8TEW8 = molecular target: T6, PARD3B_1, Q8TEW8
T6 sequence (Q8TEW8 196-299, limits assumed, looked up): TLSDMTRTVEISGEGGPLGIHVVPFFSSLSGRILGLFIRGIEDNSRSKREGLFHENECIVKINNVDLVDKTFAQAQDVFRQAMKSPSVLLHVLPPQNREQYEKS

PARD3_3, Q8TEW0 = molecular target: PARD3_3, Q8TEW0
PCLO, Q9Y6V0 = molecular target: T7, PCLO, Q9Y6V0
T7 sequence (Q9Y6V0 4491-4600, limits assumed, looked up): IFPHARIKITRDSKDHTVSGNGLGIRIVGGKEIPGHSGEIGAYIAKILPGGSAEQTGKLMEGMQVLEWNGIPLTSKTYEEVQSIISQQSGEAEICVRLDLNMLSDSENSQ

SCRIB_2, Q14160 = molecular target: SCRIB_2, Q14160
SNTA1, Q13424 = molecular target: T8, SNTA1, Q13424
T8 sequence (Q13424 82-180, limits assumed, looked up): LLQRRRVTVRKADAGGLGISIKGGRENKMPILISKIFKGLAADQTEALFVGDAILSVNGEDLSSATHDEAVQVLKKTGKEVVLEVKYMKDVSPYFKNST

SNTG1, Q9NSN8 = molecular target: T9, SNTG1, Q9NSN8
T9 sequence (Q9NSN8 52-150, limits assumed, looked up): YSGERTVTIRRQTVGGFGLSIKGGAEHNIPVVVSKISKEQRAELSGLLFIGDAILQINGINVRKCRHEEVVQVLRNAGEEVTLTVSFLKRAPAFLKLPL

SNTG2, Q9NY99 = molecular target: T10, SNTG2, Q9NY99
T10 sequence (Q9NY99 68-166, limits assumed, looked up): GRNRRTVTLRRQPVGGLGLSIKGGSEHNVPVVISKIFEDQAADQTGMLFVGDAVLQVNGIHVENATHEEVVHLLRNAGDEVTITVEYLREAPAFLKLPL

SYNJ2BP, P57105 = molecular target: T11, SYNJ2BP, P57105
T11 sequence (P57105 8-110, limits assumed, looked up): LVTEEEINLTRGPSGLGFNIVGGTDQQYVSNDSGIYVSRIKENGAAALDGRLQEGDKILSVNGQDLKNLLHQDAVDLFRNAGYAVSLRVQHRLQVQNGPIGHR

TJP1_2, Q07157 = molecular target: TJP1_2, Q07157
TJP1_2, Q07157, sequence (Q07157 181-274): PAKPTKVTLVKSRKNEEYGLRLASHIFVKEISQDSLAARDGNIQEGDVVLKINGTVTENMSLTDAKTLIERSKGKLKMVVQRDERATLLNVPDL

NOS1, P29475, sequence (P29475 9-101): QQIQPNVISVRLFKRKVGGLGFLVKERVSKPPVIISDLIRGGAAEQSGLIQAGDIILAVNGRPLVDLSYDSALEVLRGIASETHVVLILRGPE
MAGI2_5, Q86UL8, sequence (Q86UL8 915-1017): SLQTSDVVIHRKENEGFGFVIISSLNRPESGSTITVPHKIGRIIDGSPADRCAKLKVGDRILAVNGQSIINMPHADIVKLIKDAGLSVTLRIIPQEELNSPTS
IL16_1, Q14005, sequence (Q14005 210-306): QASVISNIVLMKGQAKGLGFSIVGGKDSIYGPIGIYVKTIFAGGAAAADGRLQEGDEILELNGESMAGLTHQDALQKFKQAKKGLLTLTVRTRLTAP
AHNAK1, Q09666, sequence (Q09666 4-100): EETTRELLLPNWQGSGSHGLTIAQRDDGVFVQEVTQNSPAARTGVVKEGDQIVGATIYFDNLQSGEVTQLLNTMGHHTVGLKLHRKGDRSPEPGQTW
Inadl_9, Q8NI35, sequence (Q8NI35 1530-1615): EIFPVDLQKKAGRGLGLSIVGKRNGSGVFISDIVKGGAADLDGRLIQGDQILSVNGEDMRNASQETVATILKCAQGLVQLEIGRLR
NHERF2_2, Q15599, sequence (Q15599 142-238): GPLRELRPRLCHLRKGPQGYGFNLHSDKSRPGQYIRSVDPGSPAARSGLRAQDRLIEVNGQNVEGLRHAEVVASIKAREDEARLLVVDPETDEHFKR
SCRIB_2, Q14160, sequence (Q14160 857-960): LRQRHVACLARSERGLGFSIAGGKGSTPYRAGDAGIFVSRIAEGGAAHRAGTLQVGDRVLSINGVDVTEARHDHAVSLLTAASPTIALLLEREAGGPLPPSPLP
Inadl_4, Q8NI35, sequence (Q8NI35 547-651): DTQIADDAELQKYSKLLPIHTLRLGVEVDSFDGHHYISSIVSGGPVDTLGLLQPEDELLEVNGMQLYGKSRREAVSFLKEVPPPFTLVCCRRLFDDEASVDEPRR
NHERF4_1, Q86UT5-2, sequence (Q86UT5 other isoform, or with tags, fused parts or gaps): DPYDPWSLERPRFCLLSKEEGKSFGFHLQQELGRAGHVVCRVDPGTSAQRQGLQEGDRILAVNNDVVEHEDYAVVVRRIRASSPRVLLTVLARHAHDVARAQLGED
ARHGEF12, Q9NZN5-2, sequence (Q9NZN5 other isoform, or with tags, fused parts or gaps): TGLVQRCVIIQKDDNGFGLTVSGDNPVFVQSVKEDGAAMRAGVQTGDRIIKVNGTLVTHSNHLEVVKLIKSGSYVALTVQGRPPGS
PARD3_3, Q8TEW0, sequence (Q8TEW0 582-685): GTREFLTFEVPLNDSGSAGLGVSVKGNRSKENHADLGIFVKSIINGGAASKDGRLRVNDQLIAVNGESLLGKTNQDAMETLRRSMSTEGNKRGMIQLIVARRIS
MAST1, Q9Y2H9, sequence (Q9Y2H9 962-1065): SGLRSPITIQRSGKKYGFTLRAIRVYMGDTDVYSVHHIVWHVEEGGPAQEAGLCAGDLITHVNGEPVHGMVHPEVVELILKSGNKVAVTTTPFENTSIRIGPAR
Inadl_3, Q8NI35, sequence (Q8NI35 359-469): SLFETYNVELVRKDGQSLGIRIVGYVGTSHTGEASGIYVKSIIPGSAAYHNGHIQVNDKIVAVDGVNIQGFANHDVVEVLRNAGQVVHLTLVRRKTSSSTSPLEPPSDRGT

Binder	pKd (AHNAK1, Q09666)	pKd (ARHGEF12, Q9NZN5-2)	pKd (CARD11, Q9BXL7)	pKd (DLG2_3, Q15700)	pKd (HTRA3, P83110)	pKd (HTRA4, P83105)	pKd (IL16_1, Q14005)	pKd (Inadl_3, Q8NI35)	pKd (Inadl_4, Q8NI35)	pKd (Inadl_9, Q8NI35)	pKd (LNX2_3, Q8N448)	pKd (MAGI2_5, Q86UL8)	pKd (MAST1, Q9Y2H9)	pKd (MPP7, Q5T2T1)	pKd (NHERF2_2, Q15599)	pKd (NHERF4_1, Q86UT5-2)	pKd (NOS1, P29475)	pKd (PARD3B_1, Q8TEW8)	pKd (PARD3_3, Q8TEW0)	pKd (PCLO, Q9Y6V0)	further results
EFKQTSSFLV [JAM1, Q9Y624]	below the threshold	below the threshold	below the threshold	3.63	4.16	4.05	below the threshold	4.65	below the threshold	3.86	below the threshold	below the threshold	3.56	3.74	below the threshold	3.84	3.97	4.72	3.75	below the threshold	pKd (SCRIB_2, Q14160): below the threshold; pKd (SNTA1, Q13424): below the threshold; pKd (SNTG1, Q9NSN8): below the threshold; pKd (SNTG2, Q9NY99): below the threshold; pKd (SYNJ2BP, P57105): below the threshold; pKd (TJP1_2, Q07157): 4.01
DFKHTKSFII [JAM2, P57087]	below the threshold	below the threshold	below the threshold	3.75	4.1	3.79	below the threshold	4.45	below the threshold	below the threshold	below the threshold	below the threshold	3.7	3.75	below the threshold	below the threshold	3.75	4.95	4.42	below the threshold	pKd (SCRIB_2, Q14160): below the threshold; pKd (SNTA1, Q13424): below the threshold; pKd (SNTG1, Q9NSN8): below the threshold; pKd (SNTG2, Q9NY99): below the threshold; pKd (SYNJ2BP, P57105): below the threshold; pKd (TJP1_2, Q07157): below the threshold
SQPLLVHDDV [KIT, P10721]	below the threshold	below the threshold	below the threshold	below the threshold	below the threshold	3.88	below the threshold	below the threshold	below the threshold	below the threshold	below the threshold	below the threshold	below the threshold	below the threshold	below the threshold	below the threshold	below the threshold	below the threshold	below the threshold	below the threshold	pKd (SCRIB_2, Q14160): below the threshold; pKd (SNTA1, Q13424): below the threshold; pKd (SNTG1, Q9NSN8): below the threshold; pKd (SNTG2, Q9NY99): below the threshold; pKd (SYNJ2BP, P57105): below the threshold; pKd (TJP1_2, Q07157): 3.5
PKSNSSKEYV [CLDN7, O95471]	below the threshold	below the threshold	below the threshold	below the threshold	3.8	below the threshold	below the threshold	below the threshold	below the threshold	3.71	below the threshold	below the threshold	3.62	below the threshold	below the threshold	below the threshold	3.57	below the threshold	below the threshold	below the threshold	pKd (SCRIB_2, Q14160): below the threshold; pKd (SNTA1, Q13424): below the threshold; pKd (SNTG1, Q9NSN8): below the threshold; pKd (SNTG2, Q9NY99): below the threshold; pKd (SYNJ2BP, P57105): below the threshold; pKd (TJP1_2, Q07157): below the threshold
